Measured values reported in the supplement of paper PMC7877785.
± gives the uncertainty stated by the source.

Assay: self-splicing fitness, log relative to wild type (ln ratio); higher = more splicing; Tetrahymena group I intron in knt gene, E. coli kanamycin selection, DiMSum; sequences stand for … in CUCUCU…GGAGGGAAAAGUUAUCAGGCAUGCACCUGGUAGCUAGUCUUUAAACCAAUAGAUUGCAUCGGUUUAAAAGGCAAGACCGUCAAAUUGCGGGAAAGGGGUCAACAGCCGUUCAGUACCAAGUCUCAGGGGAAACUUUGAGAUGGCCUUGCAAAGGGUAUGGUAAUAAGCUGACGGACAUGGUCCUAACCACGCAGCCAAGUCCUAAGUCAACAGAUCUUCUGUUGAUAUGGAUGCAGUUCACAGACUAAAUGUCGGUCGGGGAAGAUGUAUUCUUCUCAUAAGAUAUAGUCGGACCUCUCCUUAAUGGGAGCUAGCGGAUGAAGUGAUGCAACACUGGAGCCGCUGGGAACUAAUUUGUAUGCGAAAGUAUAUUGAUUAGUUUUGGAGUACUCGUGGUCG
Outline: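 Colonies from six replicate transformations of E. coli BL21(DE3) were pooled and amplicon-sequenced on an Illumina HiSeq 2500. The library placed an intron with all eight P1ex-region nucleotides randomised inside the knt kanamycin-resistance gene on pET-22b(+), and cells grew overnight at 37°C or 30°C on LB agar with or without 25 μg/mL kanamycin (plus 100 μg/mL carbenicillin, 50 μM IPTG, 0.2% rhamnose). Fitness is the DiMSum error-weighted combination of wild-type-normalised replicate fold changes, kanamycin versus none.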

Sequence | self-splicing fitness (ln) (30 °C) | self-splicing fitness (ln) (37 °C)
CUCAAGCAAUAUUACGGUAG | -2.03 ± 0.074 | -0.579 ± 0.08
CUCAAGCAAUAUUACGUAGC | -4.09 ± 0.25 | -2.59 ± 0.22
CUCAAGCAAUAUUACGUAUA | -3.98 ± 0.19 | -2.59 ± 0.16
CUCAAGCAAUAUUACGUGAC | -2.46 ± 0.15 | -0.92 ± 0.12
CUCAAGCAAUAUUACGUGAG | -3.05 ± 0.11 | -3.3 ± 0.16
CUCAAGCAAUAUUACGUUUG | -2.21 ± 0.12 | -2.8 ± 0.15
CUCAAGCAAUAUUACGUUUU | -3.35 ± 0.14 | -2.34 ± 0.18
CUCCAGCAAUAUUACGAAAC | -3.94 ± 0.32 | -2.44 ± 0.26
CUCCAGCAAUAUUACGAACA | -3.95 ± 0.43 | -2.23 ± 0.21
CUCCAGCAAUAUUACGAACG | -1.6 ± 0.15 | -0.22 ± 0.15
CUCCAGCAAUAUUACGACCA | – | -1.37 ± 0.41
CUCCAGCAAUAUUACGACUA | -2.47 ± 0.21 | -2.53 ± 0.29
CUCCAGCAAUAUUACGAGCC | -2.73 ± 0.22 | -2.15 ± 0.28
CUCCAGCAAUAUUACGAGUU | -2.87 ± 0.17 | -2.66 ± 0.29
CUCCAGCAAUAUUACGAUGC | -2.81 ± 0.25 | -2.95 ± 0.32
CUCCAGCAAUAUUACGCAAU | -4.47 ± 0.41 | -2.43 ± 0.2
CUCCAGCAAUAUUACGCCUG | -3.25 ± 0.21 | -2.71 ± 0.27
CUCCAGCAAUAUUACGCGUU | -3.65 ± 0.17 | -2.01 ± 0.14
CUCCAGCAAUAUUACGCUCC | -2.73 ± 0.3 | –
CUCCAGCAAUAUUACGCUUC | -3.31 ± 0.24 | -2.27 ± 0.23
CUCCAGCAAUAUUACGUAUU | -4.45 ± 0.15 | -3.21 ± 0.18
CUCCAGCAAUAUUACGUGCU | -3.06 ± 0.11 | -2.58 ± 0.14
CUCCAGCAAUAUUACGUGGC | -3.82 ± 0.15 | -3.4 ± 0.24
CUCCAGCAAUAUUACGUUAU | -3.58 ± 0.22 | -3.38 ± 0.28
CUCGAGCAAUAUUACGCAGG | -3.62 ± 0.3 | -2.36 ± 0.25

Sequence | self-splicing fitness (ln) (30 °C) | self-splicing fitness (ln) (37 °C)
CUCGAGCAAUAUUACGCCAA | -3.29 ± 0.41 | -2.04 ± 0.46
CUCGAGCAAUAUUACGCGCA | -2.79 ± 0.48 | –
CUCGAGCAAUAUUACGCUCA | -1.96 ± 0.27 | -2.15 ± 0.45
CUCGAGCAAUAUUACGCUGA | -2.4 ± 0.43 | -0.491 ± 0.3
CUCGAGCAAUAUUACGCUUU | -4.13 ± 0.46 | -2.31 ± 0.31
CUCGAGCAAUAUUACGGAAA | -2.9 ± 0.28 | -1.37 ± 0.16
CUCGAGCAAUAUUACGGAAC | -3.24 ± 0.24 | -1.98 ± 0.25
CUCGAGCAAUAUUACGGAGC | -3.66 ± 0.26 | -3.22 ± 0.3
CUCGAGCAAUAUUACGGGAU | -3.84 ± 0.36 | -1.93 ± 0.3
CUCGAGCAAUAUUACGGGCA | -2.35 ± 0.36 | 0.194 ± 0.26
CUCGAGCAAUAUUACGGUAU | -2.54 ± 0.14 | -2.62 ± 0.21
CUCGAGCAAUAUUACGGUUU | -3.87 ± 0.27 | –
CUCGAGCAAUAUUACGUACG | -3.49 ± 0.22 | -2.86 ± 0.28
CUCGAGCAAUAUUACGUCCU | -2.54 ± 0.24 | -2.55 ± 0.48
CUCGAGCAAUAUUACGUCUG | -2.84 ± 0.19 | -1.2 ± 0.18
CUCGAGCAAUAUUACGUGAG | -2.41 ± 0.17 | -2.32 ± 0.23
CUCGAGCAAUAUUACGUGCG | -3.08 ± 0.2 | -2.91 ± 0.17
CUCUAGCAAUAUUACGAAAG | -2.34 ± 0.2 | -2.11 ± 0.34
CUCUAGCAAUAUUACGACAA | – | -2.35 ± 0.28
CUCUAGCAAUAUUACGAUAU | -3.45 ± 0.24 | -3.2 ± 0.25
CUCUAGCAAUAUUACGAUCU | – | -1.9 ± 0.3
CUCUAGCAAUAUUACGCAGA | -4.08 ± 0.31 | -3.59 ± 0.22
CUCUAGCAAUAUUACGCGUU | – | -2.14 ± 0.18
CUCUAGCAAUAUUACGCUGG | -3.13 ± 0.23 | -1.51 ± 0.32
CUCUAGCAAUAUUACGGCAA | -2.38 ± 0.2 | –
